From patent US6509447B1, “G protein chimeras and methods of screening compounds” (Glaxo Welcome Inc., priority 1997, dated 2003)

Tests used:
melatonin ML1B receptor = target: T1, melatonin ML1B receptor (Homo sapiens, UniProt P49286); test: Reverse halo assay for FUS1-HIS3 expression, MMY9 cells, ML1B; assay type: cell-based; conditions: MMY9 cells with pRS314-GPA1 and ML1B receptor, 40 nmol melatonin
T1 construct: expressed in transfected cells; host or cells: Saccharomyces cerevisiae strains MMY9 and MMY11, plasmid pDT-PGK-ML1B
T1 sequence (P49286 1-362): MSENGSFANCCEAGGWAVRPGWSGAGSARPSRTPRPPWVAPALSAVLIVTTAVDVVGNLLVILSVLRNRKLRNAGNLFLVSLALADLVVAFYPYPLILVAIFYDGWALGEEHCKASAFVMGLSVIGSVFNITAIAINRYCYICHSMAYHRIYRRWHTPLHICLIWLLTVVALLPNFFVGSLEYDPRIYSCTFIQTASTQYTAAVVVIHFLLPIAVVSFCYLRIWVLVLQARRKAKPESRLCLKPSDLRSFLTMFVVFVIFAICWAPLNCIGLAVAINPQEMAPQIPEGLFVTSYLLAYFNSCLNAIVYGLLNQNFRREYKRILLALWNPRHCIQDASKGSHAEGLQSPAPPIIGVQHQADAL
Experimental: Assay for FUS1-HIS3 Expression. Reverse halo assays were carried out by growing MMY9 cells to early stationary phase (OD600≈4) in liquid SC-glucose (2%) medium lacking tryptophan and uracil. A uniform layer of cells (5×10^7) was plated to 22.5 cm by 22.5 cm bioassay dishes (Nunc) in 100 ml SC-glucose agar (1%) equilibrated to 50° C. This medium lacked tryptophan, uracil and histidine, and was supplemented with 10 mM 3-aminotriazole, and buffered to pH 7.0 with 0.1M sodium phosphate. Antibiotic discs were placed on the solidified agar, and a volume of agonist solution (1-5 μl) was applied to each disc. Plates were incubated at 30° C. for 3 days.
The four receptors were: the melatonin ML1B receptor, the serotonin 5HT1A receptor, the somatostatin SST2 receptor and the purinergic nucleotide receptor, P2Y2. […] Activation of the pheromone response pathway was monitored with two integrated reporter genes: […] allowing a growth readout in medium lacking histidine, and FUS1-lacZ allowing a β-galactosidase readout. […] Agonist-dependent activation of FUS1-HIS3 was determined by reverse halo assay in which agonists were applied to the filter discs in the arrangement shown in panel A, in quantities as follows: 3 nmol of somatostatin-14 (S-14); 40 nmol of melatonin (Mel); 3 nmol of α-factor; 100 nmol of UTP; 40 nmol of serotonin (5-HT). […]

[1] = test system: pheromone response pathway; test: Chemiluminescent β-galactosidase assay of FUS1-LacZ in MMY9 cells; assay type: cell-based, Saccharomyces cerevisiae; conditions: GPA1 promoter, mean ±SD, n≧5
Experimental: Assays for FUS1-IacZ Expression. β-galactosidase activities in cell extracts were measured with two assays. In the first assay (ONPG assay), cell extracts were incubated with the substrate ONPG as described by (37). Units were defined as (A420×1000)/(OD600x×t×v) (25). In the chemiluminescent assay, cells were grown to late logarithmic phase and diluted to 0.02 OD600 in 100 μl SC-WH medium in the presence or absence of 1 μM α-factor in 96-well microtitre plates. After incubation (30° C.; 6 hours), 20 μl of cells were removed and mixed with 20 μl assay mix (125 mM sodium phosphate pH 7.6, 15 mM MgSO4, 200 μM Galacton-Star β-galactosidase substrate (Tropix), 10% (v/v) Sapphire II (Tropix), 1 U/μl oxalyticase (Enzogenetics)). After incubation (30° C.; 1 hr) chemiluminescence was determined in a Top-count scintillation counter (Packard).
A Gpa1/Gαs chimera has been reported to couple the growth hormone releasing hormone receptor (12) when expressed from the strong constitutive promoter of the yeast phosphoglycerate kinase (PGK1) gene. We constructed Gpa1/Gαs and Gpa1/Gαq chimeras similar to those described above (FIG. 5b) and expressed them in MMY9 cells from the promoter of the GPA1 gene. We assayed FUS1-LacZ activity in these cells using a chemiluminescent assay, rather than the ONPG assay described above. […]

B1: Gpa1p: endogenous yeast Gα subunit, product of the GPA1 gene (protein, UniProt P08539 2-472, looked up)
Guanine nucleotide-binding …: GCTVSTQTIGDESDPFLQNKRANDVIEQSLQLEKQRDKNEIKLLLLGAGESGKSTVLKQLKLLHQGGFSHQERLQYAQVIWADAIQSMKILIIQARKLGIQLDCDDPINNKDLFACKRILLKAKALDYINASVAGGSDFLNDYVLKYSERYETRRRVQSTGRAKAAFDEDGNISNVKSDTDRDAETVTQNEDADRNNSSRINLQDICKDLNQEGDDQMFVRKTSREIQGQNRRNLIHEDIAKAIKQLWNNDKGIKQCFARSNEFQLEGSAAYYFDNIEKFASPNYVCTDEDILKGRIKTTGITETEFNIGSSKFKVLDAGGQRSERKKWIHCFEGITAVLFVLAMSEYDQMLFEDERVNRMHESIMLFDTLLNSKWFKDTPFILFLNKIDLFEEKVKSMPIRKYFPDYQGRVGDAEAGLKYFEKIFLSLNKTNKPIYVKRTCATDTQTMKFVLSAVTDLIIQQNLKKIGII
agonist-dependent activation of FUS1-HIS3 (halo of cell growth) (melatonin ML1B receptor): activated FUS1-HIS3 in response to melatonin
FUS1-LacZ Activity, 1 μM α-factor [1]: 27.2 ± 1.7 light units (×10^6 cps)
FUS1-LacZ Activity, No α-factor [1]: 0.73 ± 0.25 light units (×10^6 cps)
